Data published in patent publication US20260209344A1 (NONA BIOSCIENCES SUZHOU, published 2026).

Experiments:
[1] = target: human CLDN18.2 (claudin 18.2) (human); assay: cell-based or functional assay
[2] = target: T1, human CLDN18.2 (claudin 18.2) (human); assay: FACS on NUGC4_D8 cells endogenously expressing CLDN18.2
T1 construct: HEK293 hCLDN18.2) or endogenously on NUGC4_D8 cells; also called hCLDN18.2; CLD18A2
Experimental: (§1) The cell density was adjusted to 10⁶ cells/ml, and 50 μl of cell suspension was added to each well of a 96-well plate. Antibodies were diluted to different concentrations with FACS buffer and 50 μl of antibody dilution was added to each well of the 96-well plate. After incubation at 4° C. for 2 hours, the plate was washed 2 times with FACS buffer. […] After incubation at 4° C. for 1 hour, the plate was washed 2 times with FACS buffer. The cells were resuspended with fixative for monitoring the fluorescence of the cells using a FACS machine (ACEA NovoCyte).

[3] = target: T1, human CLDN18.2 (claudin 18.2); assay: cell-based or functional assay; remark: listed apart in the source
[4] = target: T1, human CLDN18.2 (claudin 18.2); assay: FACS on HEK293 hCLDN18.2 cells, APC anti-human IgG secondary
Experimental: as §1

[5] = target: T1, human CLDN18.2 (claudin 18.2); assay: cell-based or functional assay; remark: listed apart in the source
[6] = target: T2, human CLDN18.1 (claudin 18.1) (human, UniProt P56856 1-261); assay: FACS on HEK293 hCLDN18.1 cells
T2 construct: whole, on cells; HEK293 hCLDN18.1); also called hCLDN18.1; CLDN18A1
Experimental: as §1

[7] = target: T1, human CLDN18.2 (claudin 18.2); assay: FACS on NUGC4_D8 cells
Experimental: as §1

[8] = target: T1, human CLDN18.2 (claudin 18.2); assay: FACS on NUGC4_D8 cells endogenously expressing CLDN18.2; remark: listed apart in the source
Experimental: as §1

T2 sequence (P56856 whole entry): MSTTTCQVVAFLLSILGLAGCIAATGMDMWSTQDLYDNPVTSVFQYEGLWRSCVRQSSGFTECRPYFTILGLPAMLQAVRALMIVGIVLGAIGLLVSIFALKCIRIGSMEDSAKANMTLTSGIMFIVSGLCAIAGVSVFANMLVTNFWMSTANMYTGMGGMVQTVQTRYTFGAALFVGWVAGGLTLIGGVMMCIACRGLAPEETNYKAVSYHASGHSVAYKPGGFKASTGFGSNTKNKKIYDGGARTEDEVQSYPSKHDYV

B1: IMAB362 analogue (antibody, human IgG1, kappa, V domains shown)
VH: QVQLQQPGAELVRPGASVKLSCKASGYTFTSYWINWVKQRPGQGLEWIGNIYPSDSYTNYNQKFKDKATLTVDKSSSTAYMQLSSPTSEDSAVYYCTRSWRGNSFDYWGQGTTLTVSS
VL: DIVMTQSPSSLTVTAGEKVTMSCKSSQSLLNSGNQKNYLTWYQQKPGQPPKLLIYWASTRESGVPDRFTGSGSGTDFTLTISSVQAEDLAVYYCQNDYSYPFTFGSGTKLEIKR
notes: Home-made positive control; variable region identical to IMAB362, a few amino acids differ in the constant region; also called PR000400
- EC50 (nM), ADCC with human PBMC on NUGC4_D8 cells [1]: 0.91 nM
- EC50 [2]: 20.7 nM
- EC50 (nM), CDC on HEK293 hCLDN18.2 cells [3]: 1.07 nM
- EC50 [4]: 4 nM
- EC50 (nM), endocytosis in NUGC4_D8 cells (FACS) [5]: 0.4 nM

B2: PR003897 (antibody, human IgG1, kappa)
heavy: QVQLVESGGGLVQPGGSLRLSCATSGFTFSSYAMSWVRQAPGKGLEWVSLISGSGGSPYYADSVKGRFTISRDNSKNTLYLQMNSLRAEDTAVYYCAKGVVNWGSLFDYWGQGTLVTVSSASTKGPSVFPLAPSSKSTSGGTAALGCLVKDYFPEPVTVSWNSGALTSGVHTFPAVLQSSGLYSLSSVVTVPSSSLGTQTYICNVNHKPSNTKVDKKVEPKSCDKTHTCPPCPAPELLGGPDVFLFPPKPKDTLMISRTPEVTCVVVDVSHEDPEVQFNWYVDGVEVHNAKTKPREEQFNSTFRVVSVLTVVHQDWLNGKEYKCKVSNKALPAPEEKTISKTKGQPREPQVYTLPPSREEMTKNQVSLTCLVKGFYPSDIAVEWESNGQPENNYKTTPPMLDSDGSFFLYSKLTVDKSRWQQGNVFSCSVMHEALHNHYTQKSLSLSPGK
light: not shown
- binding result [6]: binds
- binding result [7]: binds

B3: PR003292 (antibody, human IgG1, kappa)
heavy: EVQLLESGGGLVQPGGSLRLSCAASGFTFSSFVMSWVRQAPGKGLEWVSTISGSGRSTYYADSVKGRFTISRDNSKNTLHLQMNSLRAEDTAVYYCAKDAAAAGTKFDYWGQGTLVTVSSASTKGPSVFPLAPSSKSTSGGTAALGCLVKDYFPEPVTVSWNSGALTSGVHTFPAVLQSSGLYSLSSVVTVPSSSLGTQTYICNVNHKPSNTKVDKKVEPKSCDKTHTCPPCPAPELLGGPSVFLFPPKPKDTLYITREPEVTCVVVDVSHEDPEVKFNWYVDGVEVHNAKTKPREEQYNSTYRVVSVLTVLHQDWLNGKEYKCKVSNKALPAPIEKTISKAKGQPREPQVYTLPPSREEMTKNQVSLTCLVKGFYPSDIAVEWESNGQPENNYKTTPPVLDSDGSFFLYSKLTVDKSRWQQGNVFSCSVMHEALHNHYTQKSLSLSPGK
light: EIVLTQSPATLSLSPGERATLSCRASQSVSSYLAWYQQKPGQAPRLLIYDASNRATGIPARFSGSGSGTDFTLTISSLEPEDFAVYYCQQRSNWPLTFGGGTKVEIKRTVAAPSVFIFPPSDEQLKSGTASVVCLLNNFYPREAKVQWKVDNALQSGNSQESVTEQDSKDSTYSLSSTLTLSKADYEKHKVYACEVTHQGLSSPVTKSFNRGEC
- binding result [6]: binds

B4: PR003293 (antibody, human IgG1, kappa)
heavy: EVQLLESGGGLVQPGGSLRLSCAASGFTFSSFVMSWVRQAPGKGLEWVSTISGSGRSTYYADSVKGRFTISRDNSKNTLHLQMNSLRAEDTAVYYCAKDAAAAGTKFDYWGQGTLVTVSSASTKGPSVFPLAPSSKSTSGGTAALGCLVKDYFPEPVTVSWNSGALTSGVHTFPAVLQSSGLYSLSSVVTVPSSSLGTQTYICNVNHKPSNTKVDKKVEPKSCDKTHTCPPCPAPELLGGPDVFLFPPKPKDTLYITREPEVTCVVVDVSHEDPEVKFNWYVDGVEVHNAKTKPREEQYNSTYRVVSVLTVLHQDWLNGKEYKCKVSNKALPAPEEKTISKAKGQPREPQVYTLPPSREEMTKNQVSLTCLVKGFYPSDIAVEWESNGQPENNYKTTPPVLDSDGSFFLYSKLTVDKSRWQQGNVFSCSVMHEALHNHYTQKSLSLSPGK
light: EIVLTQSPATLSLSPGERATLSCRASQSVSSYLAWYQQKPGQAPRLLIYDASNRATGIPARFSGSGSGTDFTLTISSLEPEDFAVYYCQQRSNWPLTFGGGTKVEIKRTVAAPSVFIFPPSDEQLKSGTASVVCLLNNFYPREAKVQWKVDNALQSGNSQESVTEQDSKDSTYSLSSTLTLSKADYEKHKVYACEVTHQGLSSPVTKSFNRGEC
- binding result [6]: binds

B5: PR003340 (antibody, human IgG1, kappa)
heavy: EVQLLESGGGLVQPGGSLRLSCAASGFTFSSFVMSWVRQAPGKGLEWVSTISGSGRSTYYADSVKGRFTISRDNSKNTLHLQMNSLRAEDTAVYYCAKDAAAAGTKFDYWGQGTLVTVSSASTKGPSVFPLAPSSKSTSGGTAALGCLVKDYFPEPVTVSWNSGALTSGVHTFPAVLQSSGLYSLSSVVTVPSSSLGTQTYICNVNHKPSNTKVDKKVEPKSCDKTHTCPPCPAPELLGGPDVFLFPPKPKDTLMISRTPEVTCVVVDVSHEDPEVQFNWYVDGVEVHNAKTKPREEQFNSTFRVVSVLTVVHQDWLNGKEYKCKVSNKALPAPEEKTISKTKGQPREPQVYTLPPSREEMTKNQVSLTCLVKGFYPSDIAVEWESNGQPENNYKTTPPMLDSDGSFFLYSKLTVDKSRWQQGNVFSCSVMHEALHNHYTQKSLSLSPGK
light: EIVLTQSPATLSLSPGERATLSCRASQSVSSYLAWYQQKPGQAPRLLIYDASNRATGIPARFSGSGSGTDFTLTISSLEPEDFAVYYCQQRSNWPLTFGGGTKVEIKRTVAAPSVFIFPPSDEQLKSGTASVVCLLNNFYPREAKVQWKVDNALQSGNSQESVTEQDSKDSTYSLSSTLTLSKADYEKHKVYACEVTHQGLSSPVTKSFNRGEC
- binding result [6]: binds

B6: PR002725 (antibody, human IgG1, kappa, V domains shown)
VH: EVQLLESGGGLVQPGGSLRLSCAASGFTFSGYVMSWVRQAPGKGLEWVSAISGSGGSKYYADSVKGRFTISRDNSKNTLYLQMNSLRAEDTAVYYCAKGDIAVLLFDYWGQGTLVTVSS
VL: EMVMTQSPATLSVSPGERATLSCRASQSVSRNLAWFQQKPGQAPRLLIYGASTRATGIPARFSGSGSGTEFTLTISSLQSEDFAVYYCQQYNNWPLTFGGGTKVEIKR
notes: Human IgG1/kappa; also called clone 11C12-13C2
- binding result [6]: binds

B7: PR002727 (antibody, human IgG1, kappa, V domains shown)
VH: EVQLVESGGGVVQPGRSLRLSCAASGFTFSSYGMHWVRQAPGKGLEWVAVIWYDGSNKYYADSVKGRFTISRDNSKNTLYLQMNSLRAEDTAVYYCAKDGYYGSGTYYYYVMNAWGQGASVTVSS
VL: EIVMTQSPATLSVSPGERVTLSCRASQSVSSNLAWYQQKPGQAPRLLIYGASTRATGIPARFSGSGSGTEFTLTISSLQSEDFAVYYCQQYNYWPLTFGGGTKVEIKR
notes: Human IgG1/kappa; also called clone 31H3E2
- binding result [8]: binds
